The values below come from paper PMC10705477 (bioRxiv, 2023).

Series [1] deals with the molecule itself. The series is described as follows: cryo-EM structure.
Series [2] deals with the molecule itself. The series is described as follows: co-purification on an anion-exchange column.

Where a chain is given by its changes, count along the chain named. In names and notes the source's numbering stands.

B1: γ protein of the E. coli clamp loader, truncated form (residues 1–373) (domain or fragment)
chain: MSYQVLARKWRPQTFADVVGQEHVLTALANGLSLGRIHHAYLFSGTRGVGKTSIARLLAKGLNCETGITATPCGVCDNCREIEQGRFVDLIEIDAASRTKVEDTRDLLDNVQYAPARGRFKVYLIDEVHMLSRHSFNALLKTLEEPPEHVKFLLATTDPQKLPVTILSRCLQFHLKALDVEQIRHQLEHILNEEHIAHEPRALQLLARAAEGSLRDALSLTDQAIASGDGQVSTQAVSAMLGTLDDDQALSLVEAMVEANGERVMALINEAAARGIEWEALLVEMLGLLHRIAMVQLSPAALGNDMAAIELRMRELARTIPPTDIQLYYQTLLIGRKELPYAPDRRMGVEMTLLRALAFHPRMPLPEPEVPRQ
On to B1, for which, in series [1], the binding result is listed as “binds”.

B2: γ-K141A (domain or fragment)
chain: B1 chain with K141A
With B2, the binding result in series [2] was “binds”.
